Assay results published in paper PMC6309207 (Journal of neurochemistry, 2015).
Positions count from the first letter of the chain named. Names and notes keep the numbering of the source. No end group written: not given here. *: point of attachment. Farnesyl = CC(C)=CCC/C(C)=C/CC/C(C)=C/C*

T1: hAIPL1 R302L mutant, His6-tagged (human, UniProt Q9NZN9 1-384, R302L)
T1 sequence (looked up): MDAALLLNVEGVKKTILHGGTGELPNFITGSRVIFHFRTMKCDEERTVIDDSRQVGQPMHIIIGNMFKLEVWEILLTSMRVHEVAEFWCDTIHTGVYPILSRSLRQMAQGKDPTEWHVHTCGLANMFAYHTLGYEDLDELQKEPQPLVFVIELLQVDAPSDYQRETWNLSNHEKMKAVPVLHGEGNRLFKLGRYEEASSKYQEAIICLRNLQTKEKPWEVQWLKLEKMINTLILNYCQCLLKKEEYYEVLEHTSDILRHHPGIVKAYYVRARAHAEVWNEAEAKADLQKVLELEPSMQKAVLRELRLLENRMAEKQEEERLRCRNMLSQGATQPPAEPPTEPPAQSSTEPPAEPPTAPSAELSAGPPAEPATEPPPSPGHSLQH

T2: hAIPL1 1–316 lacking the proline-rich domain, His6-tagged (human, UniProt Q9NZN9 1-316)
T2 sequence (looked up): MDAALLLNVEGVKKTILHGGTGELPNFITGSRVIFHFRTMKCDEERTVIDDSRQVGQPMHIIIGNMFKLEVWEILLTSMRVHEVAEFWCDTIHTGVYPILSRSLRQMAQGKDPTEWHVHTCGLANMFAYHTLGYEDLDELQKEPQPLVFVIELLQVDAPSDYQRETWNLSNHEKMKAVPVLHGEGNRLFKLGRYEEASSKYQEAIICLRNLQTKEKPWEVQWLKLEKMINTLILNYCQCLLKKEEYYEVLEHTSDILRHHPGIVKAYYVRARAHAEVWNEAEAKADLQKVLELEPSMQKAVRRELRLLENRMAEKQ

T3: hAIPL1 P376S mutant, His6-tagged (human, UniProt Q9NZN9 1-384, P376S)
T3 sequence (looked up): T1 sequence (looked up) with L302R, P376S

T4: human aryl hydrocarbon receptor-interacting protein-like 1 (hAIPL1), full length, His6-tagged (human, UniProt Q9NZN9 1-384)
T4 sequence (looked up): T1 sequence (looked up) with L302R

B1: AMCA-labeled C-terminal peptide of mouse PDE6A, S-farnesylated and carboxymethylated (peptide)
peptide: GAPASKSC(Farnesyl)
modifications: also: Cys carboxymethylated, AMCA-X conjugated
B2: PDE6 γ-subunit with a single Cys at position 68, labeled with 3-(bromo acetyl)-7-diethyl aminocoumarine (natural protein, UniProt P04972 1-87, looked up)
chain: MNLEPPKAEIRSATRVMGGPVTPRKGPPKFKQRQTRQFKSKPPKKGVQGFGDDIPGMEGLGTDITVICPWEAFNHLELHELAQYGII
modifications: 3-(bromo acetyl)-7-diethyl aminocoumarine (BC) on Cys68
B3: human aryl hydrocarbon receptor-interacting protein-like 1 (hAIPL1), full length, His6-tagged (natural protein)
chain: T1 sequence (looked up) with L302R
B4: hAIPL1 P376S mutant, His6-tagged (natural protein)
chain: T1 sequence (looked up) with L302R, P376S
B5: hAIPL1 R302L mutant, His6-tagged (natural protein)
chain: T1 sequence (looked up)
B6: hAIPL1 1–316 lacking the proline-rich domain, His6-tagged (domain or fragment)
chain: T2 sequence (looked up)

What was measured:
[1] = biological target: PDE6 γ-subunit with a single Cys at position 35, labeled with 3-(bromo acetyl)-7-diethyl aminocoumarine (UniProt P04972); assay: other fluorescence titration
[2] = biological target: FITC-labeled C-terminal peptide of HSP90a; assay: fluorescence polarisation
[3] = biological target: AMCA-labeled C-terminal peptide of mouse PDE6A, S-farnesylated and carboxymethylated (mouse); assay: FRET or BRET
[4] = biological target: T1, hAIPL1 R302L mutant, His6-tagged; assay: FRET or BRET
[5] = biological target: T2, hAIPL1 1–316 lacking the proline-rich …; assay: FRET or BRET
[6] = biological target: T3, hAIPL1 P376S mutant, His6-tagged; assay: FRET or BRET
[7] = biological target: T4, human aryl hydrocarbon …; assay: FRET or BRET
[8] = biological target: T4, human aryl hydrocarbon …; assay: other fluorescence titration

Row | Molecule | Kd [1] | Kd [2] | further results
1 | hAIPL1 P351∆12 mutant, His6-tagged (from UniProt Q9NZN9 1-384) (natural protein) | 1380 nM | 32800 nM | Kd [3]: 140 nM
2 | B1 |  |  | Kd [4]: 160 nM; Kd [5]: 240 nM; Kd [6]: 200 nM; Kd [7]: 110 nM
3 | B2 |  |  | Kd [8]: 2500 nM
4 | B3 | 990 nM | 20800 nM | 
5 | B4 | 950 nM | 23000 nM | 
6 | B5 | 810 nM | 27200 nM | 
7 | B6 | 730 nM | 20800 nM | 
